From US12065466B2, “Methods and compositions for protein sequencing” (Quantum-Si Incorporated, priority 2020, dated 2024)
Numbering of substitutions follows the chain as printed. Numbers in names are those of the source.

B1: PS568: PS372-homologous ClpS protein, SEQ ID NO: 82 (protein, listed as Dehalococcoidia bacterium)
chain: MTTPSLPTRETEVEERTEVEPERLYHLVLLDDDQHSYQYVIEMLASIFGYGSEKAWTLARIVDTEGRAILETASHAQCERHQSQIHAYGADSRIPTSVGSMSAVIEEAGTPPQT
B2: PS376: ClpS protein, SEQ ID NO: 9 (protein)
chain: MPTNDLDLLEKQDVKIERPKMYQVVMYNDDFTPFDFVVAVLMQFFNKGMDEATAIMMQVHMQGKGICGVFPKDIAETKATEVMKWAKVEQHPLRLQVEAQA
B3: PS569: PS372-homologous ClpS protein, SEQ ID NO: 83 (protein, listed as Planctomycetes bacterium)
chain: MYSKNQIKIYCSEDDKGQTATPLLEKKPKFAPLYHVILWDDNTHTYEYVIKLLMSLFRMTFEKAYQHTLEVDKKGRTICITTHLEKAELKQEQISNFGPDILMQNSKGPMSATIEPAN
B4: PS574: PS372-homologous ClpS protein, SEQ ID NO: 88 (protein, listed as Gemmata obscuriglobus)
chain: MANATPTPDVVPEEETETRTRRQPPYAVVLHNDDTNTMDFVVTVLRKVFGYTVEKCVELMLEAHTQGKVAVWIGALEVAELKADQIKSFGPDPHVTKNGHPLGVTVEPAA
B5: PS577: PS372-homologous ClpS protein, SEQ ID NO: 91 (protein, listed as Tuwongella immobilis)
chain: MSASSSQPGTTTKPDLDIQPRLLPPFHVILENDEFHSMEFVIDTLRKVLGVSIERAYQLMMTAHESGQAIIWTGPKEVAELKYEQVIGFHEKRSDGRDLGPLGCRIEPAV
B6: PS567: PS372-homologous ClpS protein, SEQ ID NO: 81 (protein, listed as Planctomycetaceae bacterium)
chain: MADYEDAGEDALEDDFDHGTVTVAPQKPEPKKQSENKRQANRQPRYNVLLWDSEDHTFEYVEKMLRELFGHIKKQCQIIAEQVDQEGRAVVLTTTLEHAELKRDQIHAYGKDQLEGSKGSMWSTIEAVD
B7: PS570: PS372-homologous ClpS protein, SEQ ID NO: 84 (protein, listed as Leptospira congkakensis)
chain: MTGAGASQPSILEETEVRPRLSDGPWKVVLWDDDFHTYEYVIEMLMDVCQMPWEKAFQHAVEVDTRKKTIVFSGELEHAEFVHERILNYGPDPRMGSSKGSMTATLEQ
B8: PS571: PS372-homologous ClpS protein, SEQ ID NO: 85 (protein, listed as Leptospira meyeri)
chain: B7 chain with G3S, A4S, V17R, R18K, S73F, S97T, Q108K
B9: PS575: PS372-homologous ClpS protein, SEQ ID NO: 89 (protein, listed as Leptospira kmetyi)
chain: MASTQTPDLNEITEESTKSTGGPWRVVLWDDNEHTYEYVIEMLMEICTMTVEKAFLHAVQVDQEKRTVVFSGEFEHAEHVQERILTYGADPRMSNSKGSMSATLEK
B10: PS576: PS372-homologous ClpS protein, SEQ ID NO: 90 (protein)
chain: B9 chain with M44V, T48M, Q63K, V69D, F74L, T86N, K106R
modifications: Leptospira interrogans
B11: atClpS2: Agrobacterium tumifaciens ClpS2, SEQ ID NO: 94 (protein, listed as Agrobacterium tumifaciens)
chain: MSDSPVDLKPKPKVKPKLERPKLYKVMLLNDDYTPREFVTVVLKAVFRMSEDTGRRVMMTAHRFGSAVVVVCERDIAETKAKEATDLGKEAGFPLMFTTEPEE
B12: atClpS2-V1 + C72S: ClpS protein, SEQ ID NO: 101 (protein)
chain: B11 chain with R36M, E37S, C72S
B13: atClpS2 C72S: ClpS protein, SEQ ID NO: 100 (protein)
chain: B11 chain with C72S
B14: Escherichia coli ClpS: ClpS protein, SEQ ID NO: 108 (protein, listed as Escherichia coli)
chain: MGKTNDWLDFDQLAEEKVRDALKPPSMYKVILVNDDYTPMEFVIDVLQKFFSYDVERATQLMLAVHYQGKAICGVFTAEVAETKVAMVNKYARENEHPLLCTLEKA
B15: PS578: PS372-homologous ClpS protein, SEQ ID NO: 92 (protein, listed as Planctomycetes bacterium)
chain: MSGTVVESKPRNSTQLAPRWKVIVHDDPVTTFDFVLGVLRRVFAKPPGEARRITREAHDTGSALVDVLALEQAEFRRDQAHSLARAEGFPLTLTLEPAD
B16: PS572: PS372-homologous ClpS protein, SEQ ID NO: 86 (protein, listed as Blastopirellula marina)
chain: MSSEELSLQTRPKRQPPFGVILHNDDLNSFDYVIDSIRKVFHYELEKCFQLTLEAHETGRSLLWTGTLEGAELKQELLLSCGPDPIMLDKGGLPLKVTLEELPQ
B17: PS573: PS372-homologous ClpS protein, SEQ ID NO: 87 (protein, listed as Leptospira fluminis)
chain: MSQTPVIEETTVKDPVKTGGPWKVVLWDDDEHTYDYVIEMLMEVCVMTMEQAFHHAVEVDTQKKTVVYSGEFEHAEHIQELILEYGPDPRMAVSKGSMSATLEKS
B18: Synechococcus elongatus ClpS1: ClpS protein, SEQ ID NO: 105 (protein, listed as Synechococcus elongatus)
chain: MAVETIQKPETTTKRKIAPRYRVLLHNDDFNPMEYVVMVLMQTVPSLTQPQAVDIMMEAHTNGTGLVITCDIEPAEFYCEQLKSHGLSSSIEPDD
B19: PS375: ClpS protein, SEQ ID NO: 8 (protein)
chain: MEAEPETKVLASIPGVGTSEPFRVVLFNDEEHSFDEVIFQIIKAVRCSRAKAEALTMEVHNSGRSIVYTGPIEQCIRVSAVLEEIELRTEIQS
B20: atClpS1 C7S: ClpS protein, SEQ ID NO: 103 (protein)
chain: MIAEPISMQGEGDGEDGGTNRGTSVITRVKPKTKRPNLYRVLLLNDDYTPMEFVIHILERFFQKDREAATRIMLHVHQHGVGECGVFTYEVAETKVSQVMDFARQHQHPLQCVMEKK
B21: atClpS1 C7S, C84S, C112S: ClpS protein, SEQ ID NO: 104 (protein)
chain: B20 chain with C84S, C112S

Tested on: amino acid at a terminal position of a polypeptide
Test: Amino acid binding preference of recognition proteins (Tables 1 and 2)
Details: Table 1, ClpS proteins; amino acid identity at a terminal position of a polypeptide; inferred from literature and/or demonstrated by the inventors
Excerpt: It should be appreciated that these sequences and other examples described herein are meant to be non-limiting, and recognition molecules in accordance with the application can include any homologs, variants thereof, or fragments thereof minimally containing domains or subdomains responsible for peptide recognition.

Molecule | Binding Pref.
B1 | I, L, V
B2 | F, W, L
B3 | I, L, V
B4 | I, L, V
B5 | I, L, V
B6 | I, L, V
B7 | I, L, V
B8 | I, L, V
B9 | I, L, V
B10 | I, L, V
B11 | F, W, Y
B12 | F, W, Y
B13 | F, W, Y
B14 | F, W, Y, L
B15 | I, L, V
B16 | I, L, V
B17 | I, L, V
B18 | F, W, Y
B19 | F, L
B20 | F, W, Y, L
B21 | F, W, Y, L
